B1: HGF: hepatocyte growth factor, complete hepatocyte mitogen used as comparator (protein, UniProt Q08048 33-495; Q08048 496-728, looked up)
Hepatocyte growth factor …: QKKRRNTLHEFKKSAKTTLTKEDPLLKIKTKKVNSADECANRCIRNRGFTFTCKAFVFDKSRKRCYWYPFNSMSSGVKKGFGHEFDLYENKDYIRNCIIGKGGSYKGTVSITKSGIKCQPWNSMIPHEHSFLPSSYRGKDLQENYCRNPRGEEGGPWCFTSNPEVRYEVCDIPQCSEVECMTCNGESYRGPMDHTESGKTCQRWDQQTPHRHKFLPERYPDKGFDDNYCRNPDGKPRPWCYTLDPDTPWEYCAIKTCAHSAVNETDVPMETTECIQGQGEGYRGTSNTIWNGIPCQRWDSQYPHKHDITPENFKCKDLRENYCRNPDGAESPWCFTTDPNIRVGYCSQIPKCDVSSGQDCYRGNGKNYMGNLSKTRSGLTCSMWDKNMEDLHRHIFWEPDASKLNKNYCRNPDDDAHGPWCYTGNPLIPWDYCPISRCEGDTTPTIVNLDHPVISCAKTKQLR
Hepatocyte growth factor beta …: VVNGIPTQTTVGWMVSLKYRNKHICGGSLIKESWVLTARQCFPARNKDLKDYEAWLGIHDVHERGEEKRKQILNISQLVYGPEGSDLVLLKLARPAILDNFVSTIDLPSYGCTIPEKTTCSIYGWGYTGLINADGLLRVAHLYIMGNEKCSQHHQGKVTLNESELCAGAEKIGSGPCEGDYGGPLICEQHKMRMVLGVIVPGRGCAIPNRPGIFVRVAYYAKWIHKVILTYKL
B2: BDNF: brain-derived neurotrophic factor, neurotrophin specific for TrkB (protein)
chain: HSDPARRGELSVCDSISEWVTAADKKTAVDMSGGTVTVLEKVPVSKGQLKQYFYETKCNPMGYTKEGCRGIDKRHWNSQCRTTQSYVRALTMDSKKRIGWRFIRIDTSCVCTLTIKRGR

Tests used:
[1] = tested on: primary mouse hepatocytes; assay: Cell proliferation assay (CellTiter-Glo) in primary mouse hepatocytes; type: cell-based; conditions: for increase of primary hepatocyte proliferation: HGF 5 ng/ml, serum-free medium (FIG. 9M); for cell proliferation, comparison of NTF3, HGF, BDNF and NAS: BDNF and HGF 20 ng/ml, NAS 500 nM (FIG. 16E)
Procedure: Primary hepatocyte isolation. Pdgfrb-GFP-negative or H-2Kd mice older than 4 months were anesthetized and cannulated via the portal vein. Livers were perfused with about 25 ml of pre-warmed Liver Perfusion Medium (Gibco, Waltham, MA; 17707-038) followed by about 50 ml Liver Digestion Medium (Gibco, Waltham, MA; 17703-034). Liver capsule was gently teased apart with tweezers and hepatocytes released. Cells were taken up in Hepatocyte Wash Buffer (Gibco, Waltham, MA; 17704-024) and filtered through 100 μm mesh. Cells were then centrifuged for 2 min at 100 g, 4° C. and cell pellet resuspended in ice cold 10 ml DMEM (Gibco, Waltham, MA; 11885-084)/5% FBS. 10 ml of ice cold 100% Percoll®/PBS (GE HealthCare, Chicago, IL; GE17-0891-01) was added for gradient purification and cells centrifuged for 10 min at 200 g, 4° C. Cell pellet was resuspended with 20 ml DMEM/5% FBS and centrifuged for 2 min at 100 g, 4° C. 1-2×10^3 hepatocytes were plated on collagen-coated 96-well plates in DMEM/5% FBS/Pen/Strep. Rat tail collagen I (Gibco, Waltham, MA; A1048301) was used for coating. Cell culture media was changed 3 hours after plating with either serum-free William's E media (Gibco, Waltham, MA) containing Pen/Strep (Gibco, Waltham, MA) or DMEM/5% FBS/Pen/Strep. NTF3 (STEMCELL technologies, Vancouver, Canada) was added 1 day after plating at a final concentration of 20 ng/ml and primary hepatocytes cultured for 3 days with NTF3 until analysis.
Cell proliferation assays. Primary mouse hepatocytes, HepG2 or AML 12 cells were grown in opaque-walled 96-well plates. NTF3 (final concentration 20 ng/ml) (STEMCELL Technologies, Vancouver, Canada; cat. 78074) and/or Loxo-195 (final concentration 5 nM) (Selleckchem, Houston, TX; S8636) were added into complete growth media without L-glutamine. Primary mouse hepatocytes were also grown in serum-free William's E media without supplements. Cells were analyzed by CellTiter-Glo® (Promega G7570, Madison, WI) which detects the number of viable cells on day 0 to day 5 by on detection systems GloMax® (Promega) or Bioteck Synergy H1 (Agilent, Santa Clara, CA). Mouse recombinant HGF (Abcam, Cambridge, UK; ab281797) was added to cell culture media at a final concentration 5 ng/ml. TRKB inhibitor ANA-12 (Selleckchem, Houston, TX; S7745) was diluted in DMSO (10 mM stock solution) and added to cell culture media at a final concentration of 10 nM.
Primary mouse hepatocyte isolation. Mice were anesthetized and cannulated via the portal vein. Livers were perfused with ˜25 ml of prewarmed liver perfusion medium (Gibco, Waltham, MA; 17707-038) followed by ˜50 ml of liver digestion medium (Gibco, Waltham, MA; 17703-034). The liver capsule was gently teased apart with tweezers, and hepatocytes were released. Cells were taken up in Hepatocyte Wash Buffer (Gibco, Waltham, MA; 17704-024) and filtered through a 100-μm mesh. Cells were then centrifuged for 2 min at 100 g, 4° C., and the cell pellet was resuspended in 10 ml of ice-cold DMEM (Gibco, Waltham, MA; 11885-084)/5% FBS. […] of ice-cold 100% Percoll®/PBS (GE HealthCare, Chicago, IL; GE17-0891-01) were added for gradient purification, and cells were centrifuged for 10 min at 200 g, 4° C. The cell pellet was resuspended with 20 ml of DMEM/5% FBS and centrifuged for 2 min at 100 g, 4° C. A total of 1×10^3 to 2×10^3 hepatocytes were plated on collagen-coated 96-well plates in DMEM/5% FBS/Pen/Strep. Rat tail collagen I (Gibco, Waltham, MA; A1048301) was used for coating. Cell culture media were changed 3 hours after plating with either serum-free William's E media (Gibco, Waltham, MA) containing Pen/Strep (Gibco, Waltham, MA) or DMEM/5% FBS/Pen/Strep. […]

mTOR = assay: Immunoblotting of mpPHH for P-S6RP and P-P70S6K (mTOR activation); type: cell-based, human; conditions: NTF3
Procedure: Mouse passaged primary human hepatocytes. Mouse-passaged primary human hepatocytes (mpPHHs) were collected as previously described (Michailidis et al., Proc Natl Acad Sci USA. 2020; 117(3): 1678-1688) and cultured in hepatocyte culture media (CC-3198, Lonza, Basel, Switzerland) in collagen-coated chamber slides. Three days before treatment, mpPHH were incubated in William's E media (with L-glutamine). […] 5-15 images per treatment per experiment were randomly taken and EdU positive nuclei quantified.
Immunoblotting. […] Protein concentration of supernatants was determined by Direct Detect Spectrophotometer (MilliporeSigma, Burlington, MA). […] The protein concentration of supernatants was determined by a Direct Detect® spectrophotometer (MilliporeSigma, Burlington, MA). For immunoblot analysis, 10 to 50 μg of protein diluted in […] sample buffer (Invitrogen, Waltham, MA) were analyzed per SDS-polyacrylamide gel electrophoresis (NuPAGE™, Invitrogen, Waltham, MA) using Mops buffer or MES buffer (Invitrogen, Waltham, MA). […] Semi-quantitative band densitometry was performed using ImageJ software (version 1.53).

Row | Molecule | synergism with HGF on primary hepatocyte proliferation ([1]; NTF3 20 ng/ml + HGF 5 ng/ml, serum-free medium (FIG. 9N)) | increase of primary hepatocyte proliferation ([1]; NTF3 20 ng/ml) [fold] | cell proliferation vs control-treated hepatocytes ([1]; NTF3 20 ng/ml, serum-free and serum-containing media (FIG. 8F, 9D)) | levels of phosphorylated P-S6RP Ser240/244 and P-pS70SK Thr389 (mTOR) | cell proliferation, comparison of NTF3, HGF, BDNF and NAS [1] | cell proliferation ([1]; BDNF 20 ng/ml (FIG. 16C))
1 | NTF3: neurotrophin-3, recombinant protein; HSC-derived hepatocyte mitogen, ligand of TRKA, TRKB, TRKC | no synergistic effects | 1.5 | significantly higher | increased levels | – | –
2 | B1 | – | 2.6 | – | – | more potent | –
3 | B2 | – | – | – | – | induce proliferation to a similar extent | significantly induced proliferation

From US20250346643A1, “TROPOMYOSIN KINASE RECEPTOR (TRK) LIGANDS AS THERAPEUTICS TO SUPPORT LIVER REGENERATION” (Vanderbilt University, priority 2024, published 2025)
